Reference: US20080020978A1 (Amgen, published 2008)
Bridge positions count the residues as written; N and C are the ends. Square brackets hold non-standard residues; d marks the D form. hArg = N=C(N)NCCCC[C@H](N)C(=O)O; hCit = NC(=O)NCCCC[C@H](N)C(=O)O

B1: PEG-peptide of SEQ ID NO 886 (peptide)
peptide: WVTHXLAGLLSXSGGVVXKNFVPTDVGPFAF
modifications: Ac-WVTH[hCit]LAGLLS[hCit]SGGVV[hArg]KNFVPTDVGPFAF-NH2; PEG-conjugated (Table 2C: in most cases at Lys^25)
B2: PEG-peptide of SEQ ID NO 887 (peptide)
peptide: B1 peptide
modifications: Ac-WVTH[hArg]LAGLLS[hCit]SGGVV[hArg]KNFVPTDVGPFAF-NH2; PEG-conjugated (Table 2C: in most cases at Lys^25)
B3: SEQ ID NO 889 (peptide)
peptide: Ac-WVTHRLRGELSRKGGVVRKNFVPTDVGPFAF-NH2
modifications: lactam 9-13
SMILES: CC(=O)N[C@@H](Cc1c[nH]c2ccccc12)C(=O)N[C@H](C(=O)N[C@H](C(=O)N[C@@H](Cc1c[nH]cn1)C(=O)N[C@@H](CCCNC(=N)N)C(=O)N[C@@H](CC(C)C)C(=O)N[C@@H](CCCNC(=N)N)C(=O)NCC(=O)N[C@H]1CCC(=O)NCCCC[C@@H](C(=O)NCC(=O)NCC(=O)N[C@H](C(=O)N[C@H](C(=O)N[C@@H](CCCNC(=N)N)C(=O)N[C@@H](CCCCN)C(=O)N[C@@H](CC(N)=O)C(=O)N[C@@H](Cc2ccccc2)C(=O)N[C@H](C(=O)N2CCC[C@H]2C(=O)N[C@H](C(=O)N[C@@H](CC(=O)O)C(=O)N[C@H](C(=O)NCC(=O)N2CCC[C@H]2C(=O)N[C@@H](Cc2ccccc2)C(=O)N[C@@H](C)C(=O)N[C@@H](Cc2ccccc2)C(N)=O)C(C)C)[C@@H](C)O)C(C)C)C(C)C)C(C)C)NC(=O)[C@H](CCCNC(=N)N)NC(=O)[C@H](CO)NC(=O)[C@H](CC(C)C)NC1=O)[C@@H](C)O)C(C)C
B4: SEQ ID NO 890 (peptide)
peptide: Ac-WVEHRLEGLLKRSGGVVRKNFVPTDVGPFAF-NH2
modifications: lactam 7-11
SMILES: CC(=O)N[C@@H](Cc1c[nH]c2ccccc12)C(=O)N[C@H](C(=O)N[C@@H](CCC(=O)O)C(=O)N[C@@H](Cc1c[nH]cn1)C(=O)N[C@@H](CCCNC(=N)N)C(=O)N[C@@H](CC(C)C)C(=O)N[C@H]1CCC(=O)NCCCC[C@@H](C(=O)N[C@@H](CCCNC(=N)N)C(=O)N[C@@H](CO)C(=O)NCC(=O)NCC(=O)N[C@H](C(=O)N[C@H](C(=O)N[C@@H](CCCNC(=N)N)C(=O)N[C@@H](CCCCN)C(=O)N[C@@H](CC(N)=O)C(=O)N[C@@H](Cc2ccccc2)C(=O)N[C@H](C(=O)N2CCC[C@H]2C(=O)N[C@H](C(=O)N[C@@H](CC(=O)O)C(=O)N[C@H](C(=O)NCC(=O)N2CCC[C@H]2C(=O)N[C@@H](Cc2ccccc2)C(=O)N[C@@H](C)C(=O)N[C@@H](Cc2ccccc2)C(N)=O)C(C)C)[C@@H](C)O)C(C)C)C(C)C)C(C)C)NC(=O)[C@H](CC(C)C)NC(=O)[C@H](CC(C)C)NC(=O)CNC1=O)C(C)C

Biological target: CGRP1 receptor (CRLR/RAMP1 complex) of human neuroblastoma SK-N-MC cells (human, UniProt Q16602 23-461; O60894 27-148)
Experiment: cell-based or functional assay

CGRP1 receptor (CRLR/RAMP1 complex) of human neuroblastoma SK-N-MC cells, sequence (Q16602 23-461, chain 1 of 2): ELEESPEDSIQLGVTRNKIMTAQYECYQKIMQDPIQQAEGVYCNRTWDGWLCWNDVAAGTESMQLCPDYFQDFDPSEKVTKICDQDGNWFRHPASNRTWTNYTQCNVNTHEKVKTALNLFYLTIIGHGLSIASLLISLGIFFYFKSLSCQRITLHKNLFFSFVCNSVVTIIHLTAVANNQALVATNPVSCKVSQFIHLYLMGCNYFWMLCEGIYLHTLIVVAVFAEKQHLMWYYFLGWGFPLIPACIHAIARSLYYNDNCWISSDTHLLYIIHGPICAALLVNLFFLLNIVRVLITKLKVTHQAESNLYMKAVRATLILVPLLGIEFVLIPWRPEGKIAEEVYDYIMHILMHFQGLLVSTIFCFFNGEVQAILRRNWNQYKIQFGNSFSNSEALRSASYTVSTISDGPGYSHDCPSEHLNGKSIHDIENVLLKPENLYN
CGRP1 receptor (CRLR/RAMP1 complex) of human neuroblastoma SK-N-MC cells, sequence (O60894 27-148, chain 2 of 2): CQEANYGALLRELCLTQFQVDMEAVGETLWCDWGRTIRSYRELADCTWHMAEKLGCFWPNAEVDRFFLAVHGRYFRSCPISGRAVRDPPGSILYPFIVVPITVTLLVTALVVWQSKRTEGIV

| Binder | PEG-peptide IC50 | Peptide IC50 |
| --- | --- | --- |
| B1 | 22.7 nM | – |
| WVTHXLAGLLSXSGGVVXKNFVPTDVGPFAF (Ac-WVTH[hArg]LAGLLS[hCit]SGGVV[hArg]KNFVPTDVGPFAF-NH2) [SEQ ID NO 887] | – | 3.14 nM |
| B2 | 6.3 nM | – |
| Ac-WVTH[hCit]LAGLLS[hArg]SGGVV[hArg]KNFVPTDVGPFAF-NH2 (also: PEG-conjugated, in most cases at Lys25) [PEG-peptide of SEQ ID NO 888] | 2.11 nM | – |
| B3 | – | 0.94 nM |
| B4 | – | 1.7 nM |
| Ac-WVEHRLEGLLKRSGGVVRKNFVPTDVGPFAF-NH2 (lactam 7-11; also: PEG-conjugated, in most cases at Lys25) [PEG-peptide of SEQ ID NO 890] | 2.86 nM | – |
| Ac-WVEHRLKGLLSRSGGVVRKNFVPTDVGPFAF-NH2 (lactam 3-7) [SEQ ID NO 891] | – | 1.47 nM |
| Ac-WVEHRLKGLLSRSGGVVRKNFVPTDVGPFAF-NH2 (lactam 3-7; also: PEG-conjugated, in most cases at Lys25) [PEG-peptide of SEQ ID NO 891] | 3.71 nM | – |
| Ac-WVEHRLKGELSRKGGVVRKNFVPTDVGPFAF-NH2 (lactam 9-13, 3-7) [SEQ ID NO 892] | – | 1.11 nM |
